Data on 40 sequences can be found in the nanobody polyreactivity screen of Harvey et al. (2022).

The nature of this data set: yeast display, Sf9 membrane polyspecificity reagent, FACS + sequencing; frameworks hold sequencing errors. In short, it runs like this:
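Genes from sorted yeast were amplified by colony PCR, read by MiSeq 2 × 250 sequencing and filtered on CDR length. These cells carried a synthetic nanobody library in Saccharomyces cerevisiae BJ5465 and were sorted by FACS into low and high (top ~1%) gates on anti-HA and streptavidin fluorescence. Polyreactivity is labelled according to the gate of origin.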
“QVQLVESGGGLVQAGGSLRLSCAASGRTFYYYAMGWYRQAPGKERELVAVISWDDGSTYYADSVKGRFTISRDNAKNTVYLQMNSLKPEVTAVYYCAAYDYLDYADDYWGQGTQVTVSS”: the “polyreactivity (PSR sort gate)” value is given as “low polyreactivity”.

For “QVQLVESGGGLVQAGGSLRLSCAASGRTFYYYGRVWYRQAPGKERDFVAAITRSGGRTYYADSVKGRFTISRDNAKNTVYLQMNSLKPEDTAVYYCATGGYYRYSGLSVYGYPYEYWGQGTQVTVSS”, the “polyreactivity (PSR sort gate)” value was “high polyreactivity”.

As for “QVQLVESGGGLVQAGGSLRLSCAASGRTFYYYTMGWYRQPPRKEREFVAAISWSGGSKYYADSVKGRFTISRDNAKNTVYLQMNSLIPEDTAVYYCNARSFATGSKVPARGYWVQGTQVTVSS”, the “polyreactivity (PSR sort gate)” value is “high polyreactivity”.

For “QVQLVESGGGLVQAGGSLRLSCAASGRTFYYYYTMGWYRQPPGKETELVAAISRSGSTNYADSVKGRFTISRDNAKNTVYLQMNSLKPEDTAVYYCARSYRSDGSRFGYWGQGTQVTVSS”, the “polyreactivity (PSR sort gate)” value is given as “low polyreactivity”.

Consider “QVQLVESGGGLVQAGGSLRLSCAASGRTIASYAMGWYRQAPGKERELVAAITSGGSTYYADSVKGRFTISRDNAKNTVYLQINSLKPEDTAVYYCARKHAIWRGYDYWGQGNQVTVSS”, for which the “polyreactivity (PSR sort gate)” value is given as “low polyreactivity”.

As for “QVQLVESGGGLVQAGGSLRLSCAASGRTIASYAMGWYRQAPGKERELVAAITSGGSTYYADSVKGRFTISRDNAKNTVYLQMNSLKPEDTAVYYCAAYVRPAYYAIHVDYWGQGTQVTVSS”, the “polyreactivity (PSR sort gate)” value is reported as “low polyreactivity”.

“QVQLVESGGGLVQAGGSLRLSCAASGRTIGPYVMGWYRQAPGKERELVAAITYIGDRTYYADSVKGRFTISRDNAKNTVYLQMNSLKPEDTAVYYCNADFFSRWGYRYMDYWGQGTQVTVSS”: the “polyreactivity (PSR sort gate)” value was “low polyreactivity”.

With “QVQLVESGGGLVQAGGSLRLSCAASGRTIGTYAMGWYRQAPGTERELVAAIRSNAGSTYYADSVKGRFTISRDNGKNTVYLQMNSLKPEDTAVYYCAKSYRSSRRYNYWGQGTQVTVSS”, the “polyreactivity (PSR sort gate)” value is recorded as “high polyreactivity”.

With “QVQLVESGGGLVQAGGSLRLSCAASGRTIGYYAMGWYRQAPGKERELDAAITRSGGSTYYADSVKGRFTISRDNAKNTVYLQMKSLKPEDTAVYYCATYSVSGKPLGYWGHGTQVTVSS”, the “polyreactivity (PSR sort gate)” value is given as “low polyreactivity”.

As for “QVQLVESGGGLVQAGGSLRLSCAASGRTIKVYAMGWYRQAPGKERELVAAISYSGAGTRYADSVKGRFTISRDNAKNTVYLQMNSLKPEDTAVYYCNTDAWARVKRYEYWGQGTQVTVSS”, the “polyreactivity (PSR sort gate)” value is listed as “low polyreactivity”.

With “QVQLVESGGGLVQAGGSLRLSCAASGRTILLNDMGWYRQAPGKERELVAGITRSGGSTYYADSVKGRFTISRDNAKNTVYLQMNSLKPEDNAVYYCAADFKPLYYDEYDYWGQGTQVTVSS”, the “polyreactivity (PSR sort gate)” value is given as “low polyreactivity”.

Take “QVQLVESGGGLVQAGGSLRLSCAASGRTINRYAMGWYRQAPGKERELVAVITSDGRTNYADSVKGRFTISRDNAKNTVYLQMNSLKPEDTAVYYCNKRSALSFVYDFDYWGQGTQVTVSS”: the “polyreactivity (PSR sort gate)” value was “low polyreactivity”.

For the sequence “QVQLVESGGGLVQAGGSLRLSCAASGRTIPAYTMGWYRQAPGKERELVAAINWSGGSTYYADSVKARFTISRDNAKNCVYLQMISLNPEDTAVYYCARTSRYYGFRSYGTLDYWGQGTQVTVSS”, the “polyreactivity (PSR sort gate)” value is on record as “high polyreactivity”.

As to “QVQLVESGGGLVQAGGSLRLSCAASGRTIPWNVMGWYRQAPGKERELVATITSRRTSTNYADSVKARFTISRDNAKNTVYLPMNSLKPEDTAVYYCARRTVWGAGHYYYWGQGTQVTVSS”, the “polyreactivity (PSR sort gate)” value is given as “high polyreactivity”.

As for “QVQLVESGGGLVQAGGSLRLSCAASGRTIRENVMGWYRQAPGKERELVAAITGNDGTTYYADSVKGRFTISRDNAKNTVYLQMNSLKPEDTAVYYCAARPYLGYIGYDYWGQGTQVTVSS”, the “polyreactivity (PSR sort gate)” value is given as “low polyreactivity”.

As for “QVQLVESGGGLVQAGGSLRLSCAASGRTIRHNAMGWYRQARGKERELVGAISRSGGATYYADSVKGRFTISRDNAKNTVYLQMNSLKPEDTAVYYCAAGYHIIYTPEYYYWGQGTQVTVSS”, the “polyreactivity (PSR sort gate)” value was “high polyreactivity”.

In the case of “QVQLVESGGGLVQAGGSLRLSCAASGRTIRYYTMGWYRQAPGKEREFVAAISSTGGTYYADSVKGRFTISRDNAKNTVYLQMNSLKPEDTAVYYCAATFIQVVVNVQLYDYDYWGQGTQVTVSS”, the “polyreactivity (PSR sort gate)” value is “low polyreactivity”.

On to “QVQLVESGGGLVQAGGSLRLSCAASGRTISHNAMGWYRQPPGKESELVAAISSGGGSTYYGDSVKGRFTISRDNAKNTVYVQMNSLKPEDTAVYYCAAPSYGRSRGFGLGINKYDYWGQGTQVTVSS”, for which the “polyreactivity (PSR sort gate)” value was “high polyreactivity”.

For “QVQLVESGGGLVQAGGSLRLSCAASGRTITRNAMGWYRQAPGKERELVASINRGGITYYADSVKGRFTISRDNAKNTVYLQMNSLKPEDTAVYYCATRPWRSPWGYYDYWGQGTQVTVSS”, the “polyreactivity (PSR sort gate)” value was “high polyreactivity”.

For the sequence “QVQLVESGGGLVQAGGSLRLSCAASGRTITWNAMGWYRQAPGKERELVADITNNGGSTYYADSVKGRFTISRDNAKNTVYLQMNSLKPEDTAVYYCAKRRNYWFSFDYWGQGTQVTVSS”, the “polyreactivity (PSR sort gate)” value is “low polyreactivity”.

“QVQLVESGGGLVQAGGSLRLSCAASGRTIWTYVMGWYRQAPGKERELVAAISRSGSSTYYADSVKGRFTISRDNAKNTVYLQMNSLKPEDTAVYYCAASSPWEQSHDQFYYWGQGTQVTVTS”: the “polyreactivity (PSR sort gate)” value is listed as “low polyreactivity”.

Consider “QVQLVESGGGLVQAGGSLRLSCAASGRTIWVYTMGWYRQAPGKERELVATINYRGGSTYYADSVKGRFTISRDNAKNTVYLQMNSLKPEDTAVYYCAADYSPPYPRYPYDYWGQGTQVTVSS”, for which the “polyreactivity (PSR sort gate)” value was “high polyreactivity”.

“QVQLVESGGGLVQAGGSLRLSCAASGRTIWYYAMGWYRQAPGKERELVASITRSGGSTYADSVKGRFTISRDNAKNTVDLQMNSLKPEDTAVYYCAATRPRIPVYQNNYGYWGQGSQVTVSS”: the “polyreactivity (PSR sort gate)” value is “high polyreactivity”.

As to “QVQLVESGGGLVQAGGSLRLSCAASGRTIYRYALGWYRQAHGKERELVSRIRSGGSTNYADSVKGRFTISRDNAKNTVYLQMNSLKPEDTAVYYCAARVLDLGKNTYYRYALGYWGQGTQVTVSS”, the “polyreactivity (PSR sort gate)” value was “high polyreactivity”.

Regarding “QVQLVESGGGLVQAGGSLRLSCAASGRTIYYYAMGWYRQAPGKEREFVAAISWHGGSTYYADSVKGRFTISRDNAKNTVYLQMNSLKPEDTAVYYCAADIYLRGFHYDYWGQGTQVTVSS”, the “polyreactivity (PSR sort gate)” value is on record as “low polyreactivity”.

Turning to “QVQLVESGGGLVQAGGSLRLSCAASGRTLAGNAMGWYRQAPGQERELVAAISQGGGSTYYADSVKGRFTISRDKAKNTVYLQMNSLKPEDTAGYYCAAEIPRLWASFATLWYDYWGQGTQVTVSS”, the “polyreactivity (PSR sort gate)” value was “low polyreactivity”.

On to “QVQLVESGGGLVQAGGSLRLSCAASGRTLAPYAMGWYRQAPGKARELVADIDRGGGSTYYADSVKGSFTISRDNAKNTVYLQMNSLKPEDTAVYYCNVDEPGVLVAYSLDFWGQGSQVTVSS”, for which the “polyreactivity (PSR sort gate)” value is given as “low polyreactivity”.

As for “QVQLVESGGGLVQAGGSLRLSCAASGRTLAPYAMGWYRQAPGKERELVAISTIGGSTYYADSVKGRFTISRDNAKNTVYLQMNSLKPEDTAVYYCAADGNSTGVYLDGGEGFAYDYWGQGTQVTVSS”, the “polyreactivity (PSR sort gate)” value is on record as “low polyreactivity”.

“QVQLVESGGGLVQAGGSLRLSCAASGRTLARNAMGWDRQAPGKERELVASINGRTTRTYYADSVKGRFTISRDNAKNTVYLQMNSLKPEDTAVYYCAADPPGYVYGKRYYWGQGTQVTVSS”: the “polyreactivity (PSR sort gate)” value was “high polyreactivity”.

On to “QVQLVESGGGLVQAGGSLRLSCAASGRTLARNAMGWYRQAPGKEREFVASINGRTTRTYYADSVKGRFTISRDNAKNTVYLQMNSLKPEDTAVYYCAADPPGYVYGKRYYWGQGTQVTVSS”, for which the “polyreactivity (PSR sort gate)” value is reported as “high polyreactivity”.

Regarding “QVQLVESGGGLVQAGGSLRLSCAASGRTLARNAMGWYRQAPGKERELVASINGRTTRTYYADSVKGRFTISRDNAKNTVYLQMNSLKPADTAVYYCAAAVRYRKYNYWGQGTQVTVSS”, the “polyreactivity (PSR sort gate)” value was “high polyreactivity”.

“QVQLVESGGGLVQAGGSLRLSCAASGRTLDKYTLGWYRQAPGKERELVASITSGGSTNYADSVKGRFTISRDNAKNTVYLQMNTLKPEDTAVYYCNKRRRVSKMGQGYDYWGQGTQVTVTS”: the “polyreactivity (PSR sort gate)” value is reported as “low polyreactivity”.

“QVQLVESGGGLVQAGGSLRLSCAASGRTLDKYTMGGYRQAPGKERELVASITSGGSTNYADSVKGRFTISRDNAKNTVYLQMNSLKPEDTAVYYCASGNWVLWNPGYDYWGQGTQVTVSS”: the “polyreactivity (PSR sort gate)” value is reported as “low polyreactivity”.

“QVQLVESGGGLVQAGGSLRLSCAASGRTLDVNAMGWYRQAPGKEKELVAAIDWGVGTTYYADSVKGRFTISRDNAKNTVYLQMNSLKPEDTAVYYCSVDVYYSVYGYPVQYYYWGQGNQVTVSS”: the “polyreactivity (PSR sort gate)” value is given as “high polyreactivity”.

Turning to “QVQLVESGGGLVQAGGSLRLSCAASGRTLFPYAMGWYIQAPGKERELVAAITSRGTSTYYADSVKGRFTISRDIAKNNVYLQMNSLKPEDTAVYYCAKDGWFWGWRFDYCGQGTQVTVSS”, the “polyreactivity (PSR sort gate)” value was “low polyreactivity”.

As for “QVQLVESGGGLVQAGGSLRLSCAASGRTLFYYTMGWYRQAPGKERELVAAITTGGRTYYADSVKGRFTISRDNAKNTVYLQMNSLKPEDTAVYYCAAHTYYYPVGFNYWGQGTQVTVSS”, the “polyreactivity (PSR sort gate)” value is on record as “low polyreactivity”.

Take “QVQLVESGGGLVQAGGSLRLSCAASGRTLFYYTMGWYRQAPGKVRELVAAITTGGRTYYADSVKGRFTISRDNAKNTVYLQMNSLNPEDTAVYYCAAHTYYYPVGFNYWGPGTQVTVSS”: the “polyreactivity (PSR sort gate)” value is “low polyreactivity”.

Turning to “QVQLVESGGGLVQAGGSLRLSCAASGRTLGANAMGWYRQAPGKERELVAAITDSGGSTYYADSVKGRFTISRDNAKNTVYLQMNSLKPEDTAVYYCAAKQAYSSTYVWPIFDYWGQGTQVTVSS”, the “polyreactivity (PSR sort gate)” value is “low polyreactivity”.

Consider “QVQLVESGGGLVQAGGSLRLSCAASGRTLGWYAMGWYRQAPGKERELVATISITGGSTYYADSVKGRFTISRDNAKNTVYLQMNSLKPEDTAVYYCAARHGSRRRYYYWGQGTQVTVSS”, for which the “polyreactivity (PSR sort gate)” value is listed as “high polyreactivity”.

In the case of “QVQLVESGGGLVQAGGSLRLSCAASGRTLHAYTMGWYRQAPGKERELVAAITRGGGNTYYADSVKGRFTISRDNAKNTVYLQMNSLKPEDTAVYYCAKDYGYQGHTRTLYWAYLEYDYWGQGTQVTVSS”, the “polyreactivity (PSR sort gate)” value is “low polyreactivity”.
